Measured values published in patent publication US20040126860.
Substitutions are numbered along the chain they refer to.

B1: mutant human cMLCK (ala 87 val, ala 95 glu), full length, with amino-terminal FLAG tag (protein)
chain: MATENGAVELGIQNPSTDKAPKGPTGERPLAAGKDPGPPDPKKAPDPPTLKKDAKAPASEKGDGTLAQPSTSSQGPKGEGDRGGGPVEGSAGPPEALPQQTATPETSVKKPKAEQGASGSQDPGKPRVGKKAAEGQAAARRGSPAFLHSPSCPAIISSSEKLLAKKPPSEASELTFEGVPMTHSPTDPRPAKAEEGKNILAESQKEVGEKTPGQAGQAKMQGDTSRGIEFQAVPSEKSEVGQALCLTAREEDCFQILDDCPPPPAPFPHRMVELRTGNVSSEFSMNSKEALGGGKFGAVCTCMEKATGLKLAAKVIKKQTPKDKEMVLLEIEVMNQLNHRNLIQLYAAIETPHEIVLFMEYIEGGELFERIVDEDYHLTEVDTMVFVRQICDGILFMHKMRVLHLDLKPENILCVNTTGHLVKIIDFGLARRYNPNEKLKVNFGTPEFLSPEVVNYDQISDKTDMWSMGVITYMLLSGLSPFLGDDDTETLNNVLSGNWYFDEETFEAVSDEAKDFVSNLIVKDQRARMNAAQCLAHPWLNNLAEKAKRCNRRLKSQILLKKYLMKRRWKKNFIAVSAANRFKKISSSGALMALGV
B2: human cardiac myosin light chain kinase (cMLCK), full length, wild type, with amino-terminal FLAG tag (protein)
chain: B1 chain with V87A, E95A

Biological target: purified complex of human cardiac RLC, human ventricular ELC and the β-myosin heavy chain light chain binding fragment (aa778-840), P10916
Sequence (P10916 2-166, chain 1 of 3): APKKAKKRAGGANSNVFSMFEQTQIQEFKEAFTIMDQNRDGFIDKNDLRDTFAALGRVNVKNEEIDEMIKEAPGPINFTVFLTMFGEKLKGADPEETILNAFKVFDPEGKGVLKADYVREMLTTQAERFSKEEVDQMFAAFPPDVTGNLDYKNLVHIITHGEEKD
Sequence (chain, as listed by the source, chain 2 of 3): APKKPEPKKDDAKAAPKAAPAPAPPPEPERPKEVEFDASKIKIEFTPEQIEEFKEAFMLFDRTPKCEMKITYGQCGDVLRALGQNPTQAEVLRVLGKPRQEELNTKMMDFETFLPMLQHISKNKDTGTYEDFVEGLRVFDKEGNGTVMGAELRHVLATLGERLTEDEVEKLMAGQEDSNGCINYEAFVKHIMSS
Sequence (chain, as listed by the source, chain 3 of 3): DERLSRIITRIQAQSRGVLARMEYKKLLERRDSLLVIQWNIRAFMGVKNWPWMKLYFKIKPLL

Row | Protein | K, (printed so; presumably Km) [µM] | Vmax (pmoles min^-1 ng^-1)
1 | B1 | 17 | 216
2 | B2 | 6 | 115
